The values that follow come from patent US20100028342A1.

The target in assay [1] is recombinant extracellular portion of human IGF-IR (soluble IGF-IR) (human) (UniProt P08069). Nature of the assay: competition: cold IGF-II against radiolabeled IGF-I on immobilized IGF-IR; cold IGF-II as competitor.
The target is the same in assay [2]. Nature of the assay: human IGF-IR-based ELISA, column Binding (ED50). For orientation: ELISA stands for enzyme-linked immunosorbent assay.
Assay [3] has the same target. The assay can be described thus: human IGF-IR binding ELISA, repeated with the same sample of A12.
Assay [4] has the same target. Nature of the assay: ligand blocking of IGF-I binding to IGF-IR, column Blocking (EC50).
For assay [5] the target is unchanged. The assay can be described thus: competition: blocking of radiolabeled IGF-I binding to immobilized IGF-IR.
The target is the same in assay [6]. Nature of the assay: BIAcore 3000, soluble IGF-IR immobilized on the sensor chip, full IgG in solution.
For assay [7] the target is unchanged. Nature of the assay: ratio of plate binding: ED50 on human IGF-IR against the highest concentration tested on IR.

By IC50 is commonly meant the concentration that gives 50% inhibition. What is called EC50 is the concentration that produces a half-maximal response. What is called Kd is the free concentration of one partner at which half of the binding sites on the other are occupied at equilibrium, for simple one-to-one binding. Usually koff stands for the rate constant with which the complex falls apart. What is called kon is the second-order rate constant of association.

Sequence of antibody A12 (fully human IgG1 anti-IGF-IR antibody) (VH): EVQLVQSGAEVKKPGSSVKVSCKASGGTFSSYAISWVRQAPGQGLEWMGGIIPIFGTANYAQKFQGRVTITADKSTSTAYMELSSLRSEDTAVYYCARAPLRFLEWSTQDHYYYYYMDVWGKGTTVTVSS
Sequence of antibody A12 (fully human IgG1 anti-IGF-IR antibody) (VL): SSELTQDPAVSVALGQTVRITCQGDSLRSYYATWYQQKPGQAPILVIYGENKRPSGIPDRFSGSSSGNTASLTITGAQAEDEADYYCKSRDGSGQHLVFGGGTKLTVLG

On to “IGF-II (from UniProt P01344 25-91) (ligand)”, for which the IC50 in assay [1] was found to be 6 nM.
“antibody A12 (fully human IgG1 anti-IGF-IR antibody)”: the EC50 in assay [2] worked out at 0.3 nM. Further, in assay [3], the EC50 was in the range of 0.3 to 0.5 nM. In addition, in assay [4], the half-maximal effective concentration (EC50) was in the range of 0.6 to 1 nM. Further, in assay [5], the 50% inhibitory concentration (IC50) was found to be 1 nM. In addition, in assay [6], the equilibrium dissociation constant (Kd) stood at 0.041 nM, the koff is 3e-05 s⁻¹ and the kon stood at 720000 M⁻¹ s⁻¹. Moreover, in assay [7], the selectivity for IGF-IR in comparison to IR is over 3000 fold.
